This data set concerns the molecule itself. As to the kind of experiment: SAXS; in solution at 293 K, at least three specimen concentrations, extrapolated to infinite dilution; in the dark (D450), under blue-light irradiation (S390) and after dark reversion; apparent molecular weight from I(S=0,C=0) against hen egg-white lysozyme or the buffer's scattering.

These results are taken from paper PMC7555306, “Domain Organization in Plant Blue-Light Receptor Phototropin2 of Arabidopsis thaliana Studied by Small-Angle X-ray Scattering” (International Journal of Molecular Sciences, 2020).

B1: LOV1 fragment of Arabidopsis thaliana phototropin2 (domain or fragment, UniProt P93025 117-265, looked up)
chain: FPRVSQELKTALSTLQQTFVVSDATQPHCPIVYASSGFFTMTGYSSKEIVGRNCRFLQGPDTDKNEVAKIRDCVKNGKSYCGRLLNYKKDGTPFWNLLTVTPIKDDQGNTIKFIGMQVEVSKYTEGVNDKALRPNGLSKSLIRYDARQK
notes: phototropin2 (phot2), Arabidopsis thaliana, LOV1 fragment, residues 117-265 of the 915-residue protein; also called phot2 LOV1
Turning to B1, the “stoichiometry N” value was 2.

B2: Asp720Asn-mutated full-length phototropin2 of Arabidopsis thaliana (natural protein)
chain: MERPRAPPSPLNDAESLSERRSLEIFNPSSGKETHGSTSSSSKPPLDGNNKGSSSKWMEFQDSAKITERTAEWGLSAVKPDSGDDGISFKLSSEVERSKNMSRRSSEESTSSESGAFPRVSQELKTALSTLQQTFVVSDATQPHCPIVYASSGFFTMTGYSSKEIVGRNCRFLQGPDTDKNEVAKIRDCVKNGKSYCGRLLNYKKDGTPFWNLLTVTPIKDDQGNTIKFIGMQVEVSKYTEGVNDKALRPNGLSKSLIRYDARQKEKALDSITEVVQTIRHRKSQVQESVSNDTMVKPDSSTTPTPGRQTRQSDEASKSFRTPGRVSTPTGSKLKSSNNRHEDLLRMEPEELMLSTEVIGQRDSWDLSDRERDIRQGIDLATTLERIEKNFVISDPRLPDNPIIFASDSFLELTEYSREEILGRNCRFLQGPETDQATVQKIRDAIRDQREITVQLINYTKSGKKFWNLFHLQPMRDQKGELQYFIGVQLDGSDHVEPLQNRLSERTEMQSSKLVKATATNVDEAVRELPDANTRPEDLWAAHSKPVYPLPHNKESTSWKAIKKIQASGETVGLHHFKPIKPLGSGDTGSVHLVELKGTGELYAMKAMEKTMMLNRNKAHRACIEREIISLLDHPFLPTLYASFQTSTHVCLITDFCPGGELFALLDRQPMKILTEDSARFYAAEVVIGLEYLHCLGIVYRDLKPENILLKKDGHIVLANFDLSFMTTCTPQLIIPAAPSKRRRSKSQPLPTFVAEPSTQSNSFVGTEEYIAPEIITGAGHTSAIDWWALGILLYEMLYGRTPFRGKNRQKTFANILHKDLTFPSSIPVSLVGRQLINTLLNRDPSSRLGSKGGANEIKQHAFFRGINWPLIRGMSPPPLDAPLSIIEKDPNAKDIKWEDDGVLVNSTDLDIDLF
notes: phototropin2 (phot2), Arabidopsis thaliana, full length, residues 1-915, with Asp720Asn; also called phot2; full-length phot2
With B2, the “stoichiometry N” value is 2.
